The values below come from the Human Domainome abundance scans (Beltran et al. 2025).

± gives the uncertainty stated by the source.

B1: Transcription factor SOX-4, residues 60 to 127; numbered along this chain, Q06945 (parent)
chain: KRPMNAFMVWSQIERRKIMEQSPDMHNAEISKRLGKRWKLLKDSDKIPFIREAERLRLKHMADYPDYK

This series covers variants of B1. In words: abundance fitness (aPCA) (normalised: wild type 0, dead -1); higher = more abundant; growth selection in yeast, the domain comes from the species named. The following applies: Homo sapiens.
For N27A, the abundance fitness amounted to 0.004 ± 0.055. In the case of N27K it was -0.03 ± 0.052. Next, N27L: -0.162 ± 0.038; N27P: 0.184 ± 0.076. In the case of N27S it was 0.07 ± 0.049; in that of N27Y, -0.179 ± 0.052; in that of N27H, 0.059 ± 0.049. Consider N27D, for which the abundance fitness was 0.147 ± 0.045.

For the variant D63L, the abundance fitness is -0.208 ± 0.039.

As for D63A, the abundance fitness was -0.074 ± 0.051. On to D63S, for which the abundance fitness is -0.153 ± 0.036.

Consider D63M, for which the abundance fitness was found to be 0.055 ± 0.052. With K59F, the abundance fitness was -0.321 ± 0.054. Regarding K59P, the abundance fitness is -0.178 ± 0.089. In the case of K59T it was -0.162 ± 0.058; in that of K59M, -0.048 ± 0.055; in that of K1Q, -0.788 ± 0.33. In the case of K1S it was -0.011 ± 0.15. Next, K1D: 0.048 ± 0.12.

In the case of K17H, the abundance fitness is -0.426 ± 0.14. Next, K17P: -0.987 ± 0.23. With K17G, the abundance fitness was -0.783 ± 0.075. Next, K17M: -0.401 ± 0.13; Q12W: -0.662 ± 0.1; Q12H: -0.116 ± 0.23. Next, Q12C: -0.07 ± 0.06. Take Q12E: the abundance fitness worked out at 0.05 ± 0.069. For Q12S, the abundance fitness was -0.134 ± 0.06. In the case of K39F, the abundance fitness is -0.481 ± 0.062. In the case of K39T it was -0.216 ± 0.064; in that of K39R, -0.187 ± 0.047; in that of K39Y, -0.263 ± 0.076. Consider K39V, for which the abundance fitness was -0.306 ± 0.039. In the case of P48G it was -0.51 ± 0.042. Next, P48K: -0.482 ± 0.1; P48H: -0.31 ± 0.048. In the case of P48I it was -0.089 ± 0.08. Regarding S31V, the abundance fitness is -0.021 ± 0.034.

For S31M, the abundance fitness came to 0.072 ± 0.043. Regarding S31R, the abundance fitness was -0.137 ± 0.032. Turning to H60S, the abundance fitness stood at 0.041 ± 0.06. H60D: the abundance fitness amounted to 0.005 ± 0.075. Next, H60K: 0.023 ± 0.1; H60F: -0.193 ± 0.21; H60Q: -0.066 ± 0.072. In the case of H60E it was 0.053 ± 0.072; in that of H60V, -0.173 ± 0.053; in that of H60W, -0.161 ± 0.074. In the case of A28L it was -0.195 ± 0.068; in that of A28W, -0.242 ± 0.062; in that of A28V, -0.169 ± 0.063. Turning to M25V, the abundance fitness was -0.125 ± 0.065.

As for M25E, the abundance fitness was -0.323 ± 0.093. Next, M25T: -0.189 ± 0.078; M25A: -0.019 ± 0.058. Take M25Q: the abundance fitness was -0.595 ± 0.15. As to M25F, the abundance fitness is -0.614 ± 0.29.

As for M25Y, the abundance fitness is -0.679 ± 0.21. Turning to H26Y, the abundance fitness was -0.652 ± 0.39. Next, H26F: -0.713 ± 0.43; H26D: 0.191 ± 0.094; H26G: -0.082 ± 0.071. As for H26T, the abundance fitness is 0.154 ± 0.058. For H26I, the abundance fitness was -0.088 ± 0.11. For the variant H26N, the abundance fitness turned out to be 0.289 ± 0.25. In the case of E29L it was -0.518 ± 0.067; in that of E29K, -0.691 ± 0.24; in that of E29C, -0.394 ± 0.2. Next, E29M: -0.225 ± 0.12; E29A: -0.199 ± 0.071; E29H: -0.879 ± 0.46. In the case of F49I it was -0.82 ± 0.26; in that of F49A, -0.533 ± 0.084; in that of F49V, -0.763 ± 0.094.

For F49S, the abundance fitness was -0.763 ± 0.098.

With F49M, the abundance fitness is -1.08 ± 0.31. Next, Y64V: 0.02 ± 0.063.

For the variant Y64P, the abundance fitness was -0.009 ± 0.061. Take Y64T: the abundance fitness amounted to 0.059 ± 0.065. As for Y64E, the abundance fitness was 0.006 ± 0.083. Turning to A6H, the abundance fitness is -1.12 ± 0.36. In the case of D43E it was -0.058 ± 0.057; in that of D43I, -0.226 ± 0.058; in that of D43N, -0.294 ± 0.053. Next, D43A: -0.061 ± 0.055. Consider L58H, for which the abundance fitness was -0.018 ± 0.062.

Take L58S: the abundance fitness was -0.011 ± 0.034. Turning to L58D, the abundance fitness is -0.039 ± 0.047. As to L58W, the abundance fitness is -0.247 ± 0.055.

As for L58T, the abundance fitness was -0.087 ± 0.058. In the case of L58C it was -0.247 ± 0.058. In the case of L58I, the abundance fitness is -0.132 ± 0.047. In the case of E54P it was -0.802 ± 0.11.

Take E54L: the abundance fitness is -0.501 ± 0.045.

As for E54K, the abundance fitness was -0.369 ± 0.06.

M8D: the abundance fitness came out at 0.088 ± 0.049. Next, M8K: -0.205 ± 0.054; M8A: 0.023 ± 0.044; M8G: 0.025 ± 0.041.

M8Q: the abundance fitness came to 0.193 ± 0.059.

Regarding K36F, the abundance fitness is -0.053 ± 0.13. For the variant K36P, the abundance fitness is -0.722 ± 0.18. Next, K36R: -0.075 ± 0.061; K36A: -0.019 ± 0.071; W38V: -0.887 ± 0.12. In the case of W38Q it was -1.02 ± 0.24; in that of W38C, -0.849 ± 0.076; in that of W38P, -0.739 ± 0.13. As to W38A, the abundance fitness was -1.01 ± 0.1. In the case of R2T it was -0.457 ± 0.2; in that of R2G, -0.121 ± 0.086; in that of R2K, -0.135 ± 0.12. In the case of R2F it was -0.113 ± 0.12. For R2P, the abundance fitness is -0.519 ± 0.16. In the case of R2V, the abundance fitness is -0.08 ± 0.07.

For R2E, the abundance fitness was -0.362 ± 0.12. For S22F, the abundance fitness stood at 0.106 ± 0.05. As to S22A, the abundance fitness was -0.074 ± 0.082. In the case of S22E it was -0.027 ± 0.052.

In the case of S22R, the abundance fitness is -0.211 ± 0.038. In the case of S22Y it was 0.066 ± 0.054; in that of S22H, -0.01 ± 0.061. With L34I, the abundance fitness was -0.083 ± 0.17. In the case of L34Q it was -0.577 ± 0.22; in that of L34C, -0.825 ± 0.18. L34M: the abundance fitness was -0.798 ± 0.18. As to L34T, the abundance fitness is -0.957 ± 0.15.

With I30H, the abundance fitness was -1.11 ± 0.17. I30Y: the abundance fitness is -0.8 ± 0.11. In the case of I30Q it was -0.7 ± 0.078; in that of I30P, -0.976 ± 0.18. In the case of I30V it was 0.022 ± 0.037; in that of P23Q, -0.482 ± 0.09. In the case of P23M it was -0.817 ± 0.077; in that of P23W, -0.766 ± 0.088. As for P23I, the abundance fitness is -0.568 ± 0.074. On to P23H, for which the abundance fitness is -0.548 ± 0.083. In the case of P23N it was -0.554 ± 0.057; in that of P23L, -0.52 ± 0.055. For P23D, the abundance fitness was -0.564 ± 0.059.

On to L41G, for which the abundance fitness was -0.941 ± 0.16. As to L41A, the abundance fitness is -0.875 ± 0.12. On to L41E, for which the abundance fitness was -0.849 ± 0.16. Consider L41Y, for which the abundance fitness is -0.807 ± 0.17. Take M4Y: the abundance fitness is -0.236 ± 0.076. With M4H, the abundance fitness was -0.589 ± 0.14. In the case of M4A it was -0.227 ± 0.075. Next, M4C: -0.709 ± 0.22. Next, Y67F: 0.259 ± 0.25; Y67M: -0.069 ± 0.093; Y67R: 0.048 ± 0.11. Y67W: the abundance fitness was -0.296 ± 0.11. In the case of Y67T it was -0.14 ± 0.08; in that of N5V, -0.828 ± 0.16. In the case of N5W it was -0.439 ± 0.16. In the case of N5G it was -0.278 ± 0.081; in that of N5Y, -0.472 ± 0.18; in that of N5D, -0.032 ± 0.15. N5I: the abundance fitness was -0.665 ± 0.23. In the case of I18K it was -0.892 ± 0.17. In the case of I18M it was -0.169 ± 0.066; in that of I18Q, -0.948 ± 0.3. In the case of S44E it was 0.119 ± 0.1; in that of S44M, -0.243 ± 0.1. In the case of S44N, the abundance fitness was -0.23 ± 0.18. Turning to S44Q, the abundance fitness is -0.073 ± 0.073. As for S44V, the abundance fitness is -0.164 ± 0.066.
